Laboratory results taken from patent publication US20140314784A1.

Experiments:
KO_1st loop [1] = test: flow cytometry, CHO cells transiently transfected with the construct, 6C7 at 0.1 µg/ml, dot plot SSC-A against PE-A
KO_3rd loop [2] = test: as above
KO_N-term [3] = test: as above
KO_1st loop [4] = test: flow cytometry, CHO cells transiently transfected with the construct, 6C7 at 0.05 µg/ml, dot plot SSC-A against PE-A
KO_3rd loop [5] = test: as above
KO_N-term [6] = test: as above

B1: 6C7 (antibody, V domains shown)
VH: QVQLVESGGGVVQPGRSLRLSCAASGFTFSNYVMHWVRQAPGKGLEWVAVIWYDGSNKYYADSVKGRFTISRDNSKNTLSLQMNSLRAEDTAVYYCERGEGYYGSGSRYRGYYYGMDVWGQGTTVTVSS
VL: DIQMTQSPSSLSASVGDRVTITCRASQGIRTDLGWYQQKPGKAPKRLIYAASSLQSGVPSRFSGSGSGTEFTLTISSLQPEDFATYYCLQHNSYPRTFGQGTKVEIK
number in the positive gate (percent of cells) (KO_1st loop [1]): 50.1 | number in the positive gate (percent of cells) (KO_3rd loop [2]): 52.8 | number in the positive gate (percent of cells) (KO_N-term [3]): 52.8 | number in the positive gate (percent of cells) (KO_1st loop [4]): 45.2 | number in the positive gate (percent of cells) (KO_3rd loop [5]): 47 | number in the positive gate (percent of cells) (KO_N-term [6]): 49.2
